# Results: paper PMC10284121 (2023)
# B1: 14-3-3γ (protein)
# chain: VDREQLVQKARLAEQAERYDDMAAAMKNVTELNEPLSNEERNLLSVAYKNVVGARRSSWRVISSIEQKTSADGNEKKIEMVRAYREKIEKELEAVCQDVLSLLDNYLIKNCSETQYESKVFYLKMKGDYYRYLAEVATGEKRATVVESSEKAYSEAHEISKEHMQPTHPIRLGLALNYSVFYYEIQNAPEQACHLAKTAFDDAIAELDTLNEDSYKDSTLIMQLLRDNLTLWTSDQQDDDGGEGNN
# modifications: phosphopeptide, fluorescein label, MG1 present (2-3 h)
# B2: 14-3-3γ (protein)
# chain: VDREQLVQKARLAEQAERYDDMAAAMKNVTELNEPLSNEERNLLSVAYKNVVGARRSSWRVISSIEQKTSADGNEKKIEMVRAYREKIEKELEAVCQDVLSLLDNYLIKNCSETQYESKVFYLKMKGDYYRYLAEVATGEKRATVVESSEKAYSEAHEISKEHMQPTHPIRLGLALNYSVFYYEIQNAPEQACHLAKTAFDDAIAELDTLNEDSYKDSTLIMQLLRDNLTLWTSDQQDDDGGEGNN
# modifications: phosphopeptide, fluorescein label, MG1 present, pH 8.0
# B3: 14-3-3γ (protein)
# chain: VDREQLVQKARLAEQAERYDDMAAAMKNVTELNEPLSNEERNLLSVAYKNVVGARRSSWRVISSIEQKTSADGNEKKIEMVRAYREKIEKELEAVCQDVLSLLDNYLIKNCSETQYESKVFYLKMKGDYYRYLAEVATGEKRATVVESSEKAYSEAHEISKEHMQPTHPIRLGLALNYSVFYYEIQNAPEQACHLAKTAFDDAIAELDTLNEDSYKDSTLIMQLLRDNLTLWTSDQQDDDGGEGNN
# modifications: phosphopeptide, fluorescein label
# B4: 14-3-3γ (protein)
# chain: VDREQLVQKARLAEQAERYDDMAAAMKNVTELNEPLSNEERNLLSVAYKNVVGARRSSWRVISSIEQKTSADGNEKKIEMVRAYREKIEKELEAVCQDVLSLLDNYLIKNCSETQYESKVFYLKMKGDYYRYLAEVATGEKRATVVESSEKAYSEAHEISKEHMQPTHPIRLGLALNYSVFYYEIQNAPEQACHLAKTAFDDAIAELDTLNEDSYKDSTLIMQLLRDNLTLWTSDQQDDDGGEGNN
# modifications: phosphopeptide, fluorescein label, MG1 present, pH 6.5
# B5: 14-3-3γ (protein)
# chain: VDREQLVQKARLAEQAERYDDMAAAMKNVTELNEPLSNEERNLLSVAYKNVVGARRSSWRVISSIEQKTSADGNEKKIEMVRAYREKIEKELEAVCQDVLSLLDNYLIKNCSETQYESKVFYLKMKGDYYRYLAEVATGEKRATVVESSEKAYSEAHEISKEHMQPTHPIRLGLALNYSVFYYEIQNAPEQACHLAKTAFDDAIAELDTLNEDSYKDSTLIMQLLRDNLTLWTSDQQDDDGGEGNN
# modifications: phosphopeptide, fluorescein label, MG1 present (10 min)
# B6: 14-3-3γ (protein)
# chain: VDREQLVQKARLAEQAERYDDMAAAMKNVTELNEPLSNEERNLLSVAYKNVVGARRSSWRVISSIEQKTSADGNEKKIEMVRAYREKIEKELEAVCQDVLSLLDNYLIKNCSETQYESKVFYLKMKGDYYRYLAEVATGEKRATVVESSEKAYSEAHEISKEHMQPTHPIRLGLALNYSVFYYEIQNAPEQACHLAKTAFDDAIAELDTLNEDSYKDSTLIMQLLRDNLTLWTSDQQDDDGGEGNN
# modifications: phosphopeptide, fluorescein label, fusicoccin-A present
# Biological target: Pin1 phosphopeptide (fluorescein-labelled) (Homo sapiens, UniProt Q13526)
# Sequence (Q13526 whole entry): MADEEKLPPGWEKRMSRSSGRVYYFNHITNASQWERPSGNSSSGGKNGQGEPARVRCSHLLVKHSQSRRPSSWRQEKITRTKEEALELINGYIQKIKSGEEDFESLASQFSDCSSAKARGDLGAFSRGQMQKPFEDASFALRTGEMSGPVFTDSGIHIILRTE
# Assay: fluorescence anisotropy
row,Binder,Kd [µM]
1,B1,1.5
2,B2,~0.6
3,B3,30
4,B4,~5.2
5,B5,5.4
6,B6,2.9
